Substrate in this data set: OC[C@H]1O[C@H](O[C@H]2O[C@H](CO)[C@@H](O[C@H]3O[C@H](CO)[C@@H](O[C@H]4O[C@H](CO)[C@@H](O[C@H]5O[C@H](CO)[C@@H](O)[C@H](O)[C@H]5O)[C@H](O)[C@H]4O)[C@H](O)[C@H]3O)[C@H](O)[C@H]2O)[C@H](O)[C@@H](O)[C@@H]1O
The experiment in a line: initial rates of G3T hydrolysis, Michaelis-Menten fit. The conditions noted are these: 50 mM citrate-phosphate pH 5, 60 °C. The format is biochemical, Saccharolobus solfataricus. An excerpt:
initial rates of […] hydrolysis, Michaelis-Menten fit on […] (maltooligosyltrehalose trehalohydrolase) from S. solfataricus ATCC 35092

Substitutions are numbered along the chain they refer to. In names and notes the source's numbering stands.

B1: MTHase (maltooligosyltrehalose trehalohydrolase) from S. solfataricus ATCC 35092 (Saccharolobus solfataricus P2) (protein)
chain: MTFGYKLDEDGVTFNLWAPYQRKVKLKILNRGIYEMERDDKGYFTITLDNVRVGDRYKYILDDNSEVPDPASRYQPEGVHGYSEIISPDFEWDDENSVKVKREDLVIYELHIGTFTSEGTFEGVIKKLNYLKELGVTAIEIMPIAQFPGKKDWGYDGVYLYAVQNSYGGPSGFRKLVNEAHKLGLAVILDVVYNHVGPEGNYMVKLGPYFSEKYKTPWGLTFNFDDAGSDEVRKFILENVEYWINEFHVDGFRLDAVHAIIDNSPKHILEDIADVVHKYDKIVIAESDLNDPRVVNPKEKCGYNIDAQWVDDFHHAIHAFLTGERQGYYSDFGSIGDIVKSYKDVFIYDGKYSNFRRKTHGKSVGDLDGCKFVVYIQNHDQVGNRGGGERLIKLVDKESYKIAAALYILSPYIPMIFMGEEYGEENPFYYFSDFSDPKLIQGVREGRRRENGQETDPQSDCTFNDSKLSWKINDDILSFYKSLIKIRKEYGLACNRKLSVENGNYWLTVKGNGCLAVYVFSKSVIEMKYSGTLVLSSNSSFPSQITESKYELDKGFALYKL
notes: expressed from pET-15b-ΔH-treZ in E. coli BL21-CodonPlus (DE3)-RIL; heat treatment 80 °C, Q-Sepharose; docking model was the KM1 enzyme (PDB 1EH9), not the assayed protein
One may read the Km as the concentration of substrate that gives half-maximal velocity. A word on the kcat: it is the number of substrate molecules converted per active site and unit of time at saturation. The kcat/Km is the second-order rate constant that governs catalysis at low substrate concentration. Regarding B1, the Km was 5.22 ± 0.59 mM, the kcat came to 947 ± 40 s⁻¹ and the kcat/Km was 182000 ± 14000 M⁻¹ s⁻¹.

B2: MTHase (maltooligosyltrehalose trehalohydrolase) from S. solfataricus ATCC 35092 (Saccharolobus solfataricus P2; D156A) (protein)
chain: B1 chain with D156A
notes: as for B1
In the case of B2, the Km worked out at 12.9 ± 2.3 mM, the kcat worked out at 608 ± 62 s⁻¹ and the kcat/Km was determined as 47300 ± 3700 M⁻¹ s⁻¹.

B3: MTHase (maltooligosyltrehalose trehalohydrolase) from S. solfataricus ATCC 35092 (Saccharolobus solfataricus P2; R447A) (protein)
chain: B1 chain with R447A
notes: as for B1
B3: the Km is 10.7 ± 1.3 mM, the kcat turned out to be 303 ± 16 s⁻¹ and the kcat/Km was 28200 ± 2000 M⁻¹ s⁻¹.

B4: MTHase (maltooligosyltrehalose trehalohydrolase) from S. solfataricus ATCC 35092 (Saccharolobus solfataricus P2; E450A) (protein)
chain: B1 chain with E450A
notes: as for B1
Regarding B4, the Km was determined as 7.48 ± 0.70 mM, the kcat turned out to be 1070 ± 50 s⁻¹ and the kcat/Km was 144000 ± 8000 M⁻¹ s⁻¹.

B5: MTHase (maltooligosyltrehalose trehalohydrolase) from S. solfataricus ATCC 35092 (Saccharolobus solfataricus P2; H195A) (protein)
chain: B1 chain with H195A
notes: as for B1
For B5, the Km came to 4.18 ± 0.31 mM, the kcat is 2.15 ± 0.05 s⁻¹ and the kcat/Km turned out to be 510 ± 30 M⁻¹ s⁻¹.

B6: MTHase (maltooligosyltrehalose trehalohydrolase) from S. solfataricus ATCC 35092 (Saccharolobus solfataricus P2; Y155F) (protein)
chain: B1 chain with Y155F
notes: as for B1
For the protein B6, the Km came out at 5.02 ± 0.34 mM, the kcat was found to be 27.8 ± 0.7 s⁻¹ and the kcat/Km was found to be 5540 ± 250 M⁻¹ s⁻¹.

B7: MTHase (maltooligosyltrehalose trehalohydrolase) from S. solfataricus ATCC 35092 (Saccharolobus solfataricus P2; Y155A) (protein)
chain: B1 chain with Y155A
notes: as for B1
With B7, the Km was found to be 39.2 ± 2.8 mM, the kcat is 44.8 ± 1.7 s⁻¹ and the kcat/Km was determined as 1140 ± 40 M⁻¹ s⁻¹.

The values are drawn from PMC3716775, “Interaction between Trehalose and MTHase from Sulfolobus solfataricus Studied by Theoretical Computation and Site-Directed Mutagenesis” (PLoS ONE, 2013).
